Results taken from the supplement of paper PMC10201428.
± gives the standard deviation of the averaged measurements.

B1: library; a variant is named by its letters at N, in order (parent)
chain: AATGTTGTTGATGCAACCATAAAGTGATATTTAATAATTATTTATAATCAGCAACTTAACCACAAAACAACCATATATTGATATNTCACAAAACAACCATAANTTGATATTTTTGTGAATCGAGTATTTCAGCAAAACTACTGCAGTAAGAA

What was measured:
[1] = variants of: B1; assay: relative integration efficiency (T-LR orientation) vs wild-type transposon end (log2 (normalized fold change)); transposon end mutated: left end; higher = more efficient transposition; details: with VchCAST RNA-guided transposition machinery (E. coli BL21(DE3) host, lacZ target)
Method in brief: (§1)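 A T7-driven effector plasmid encoding a CRISPR array, tniQ-cas8-cas7-cas6 and tnsA-tnsB-tnsC was co-transformed into E. coli BL21(DE3) together with a pUC57 mini-transposon donor holding barcoded pools of 1549 left-end or 1849 right-end variants. Transformants were plated with 0.1 mM IPTG at 37°C for 18 h. Illumina sequencing of PCR-amplified input plasmids and genomic integration junctions gave barcode abundances, and relative integration efficiency is their output/input fold change, normalised to reference barcodes and log-transformed.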

[2] = variants of: B1; assay: relative integration efficiency (T-RL orientation) vs wild-type transposon end (log2 (normalized fold change)); transposon end mutated: left end; higher = more efficient transposition; details: with VchCAST RNA-guided transposition machinery (E. coli BL21(DE3) host, lacZ target)
Method in brief: as §1

Variant: AATGTTGTTGATGCAACCATAAAGTGATATTTAATAATTATTTATAATCAGCAACTTAACCACAAAACAACCATATATTGATATCTCACAAAACAACCATAAGTTGATATTTTACTGAATCGAGTATTTCAGCAAAACTACTGCAGTAAGAA
- relative integration efficiency (log2) [1]: -0.272 ± 0.35
- relative integration efficiency (log2) [2]: -0.342 ± 0.024

Variant: AATGTTGTTGATGCAACCATAAAGTGATATTTAATAATTATTTATAATCAGCAACTTAACCACAAAACAACCATATATTGATATCTCACAAAACAACCATAAGTTGATATTTTGGTGAAACGAGTATTTCAGCAAAACTACTGCAGTAAGAA
- relative integration efficiency (log2) [1]: 0.16 ± 0.11
- relative integration efficiency (log2) [2]: -0.2 ± 0.041

Variant: AATGTTGTTGATGCAACCATAAAGTGATATTTAATAATTATTTATAATCAGCAACTTAACCACAAAACAACCATATATTGATATCTCACAAAACAACCATAAGTTGATATTTTTGACTTTCGAGTATTTCAGCAAAACTACTGCAGTAAGAA
- relative integration efficiency (log2) [1]: 0.00543 ± 0.19
- relative integration efficiency (log2) [2]: 0.0211 ± 0.042

Variant: AATGTTGTTGATGCAACCATAAAGTGATATTTAATAATTATTTATAATCAGCAACTTAACCACAAAACAACCATATATTGATATCTCACAAAACAACCATAAGTTGATATTTTTGCGAATCGAGTATTTCAGCAAAACTACTGCAGTAAGAA
- relative integration efficiency (log2) [1]: 0.235 ± 0.36
- relative integration efficiency (log2) [2]: -0.0857 ± 0.085

Variant: AATGTTGTTGATGCAACCATAAAGTGATATTTAATAATTATTTATAATCAGCAACTTAACCACAAAACAACCATATATTGATATCTCACAAAACAACCATAAGTTGATATTTTTGAGAATCGAGTATTTCAGCAAAACTACTGCAGTAAGAA
- relative integration efficiency (log2) [1]: 0.317 ± 0.21
- relative integration efficiency (log2) [2]: 0.0633 ± 0.024

Variant: AATGTTGTTGATGCAACCATAAAGTGATATTTAATAATTATTTATAATCAGCAACTTAACCACAAAACAACCATATATTGATATCTCACAAAACAACCATAAGTTGATATTTTTGGGAATCGAGTATTTCAGCAAAACTACTGCAGTAAGAA
- relative integration efficiency (log2) [1]: 0.159 ± 0.61
- relative integration efficiency (log2) [2]: 0.0899 ± 0.05

Variant: AATGTTGTTGATGCAACCATAAAGTGATATTTAATAATTATTTATAATCAGCAACTTAACCACAAAACAACCATATATTGATATCTCACAAAACAACCATAAGTTGATATTTTGTTGAATCGAGTATTTCAGCAAAACTACTGCAGTAAGAA
- relative integration efficiency (log2) [1]: 0.781 ± 0.54
- relative integration efficiency (log2) [2]: -0.471 ± 0.32

Variant: AATGTTGTTGATGCAACCATAAAGTGATATTTAATAATTATTTATAATCAGCAACTTAACCACAAAACAACCATATATTGATATCTCACAAAACAACCATAAGTTGATATTTTACACAATCGAGTATTTCAGCAAAACTACTGCAGTAAGAA
- relative integration efficiency (log2) [1]: -0.217 ± 0.74
- relative integration efficiency (log2) [2]: -0.00788 ± 0.19

Variant: AATGTTGTTGATGCAACCATAAAGTGATATTTAATAATTATTTATAATCAGCAACTTAACCACAAAACAACCATATATTGATATCTCACAAAACAACCATAAGTTGATATTTTGGTGAATCGAGTATTTCAGCAAAACTACTGCAGTAAGAA
- relative integration efficiency (log2) [1]: -0.0542 ± 0.0021
- relative integration efficiency (log2) [2]: -0.0633 ± 0.064

Variant: AATGTTGTTGATGCAACCATAAAGTGATATTTAATAATTATTTATAATCAGCAACTTAACCACAAAACAACCATATATTGATATCTCACAAAACAACCATAAGTTGATATTTTCGTGAATCGAGTATTTCAGCAAAACTACTGCAGTAAGAA
- relative integration efficiency (log2) [1]: -0.293 ± 0.5
- relative integration efficiency (log2) [2]: -0.448 ± 0.095

Variant: AATGTTGTTGATGCAACCATAAAGTGATATTTAATAATTATTTATAATCAGCAACTTAACCACAAAACAACCATATATTGATATCTCACAAAACAACCATAAGTTGATATTTTAGTGAATCGAGTATTTCAGCAAAACTACTGCAGTAAGAA
- relative integration efficiency (log2) [1]: -0.000535 ± 0.15
- relative integration efficiency (log2) [2]: -0.291 ± 0.097

Variant: AATGTTGTTGATGCAACCATAAAGTGATATTTAATAATTATTTATAATCAGCAACTTAACCACAAAACAACCATATATTGATATCTCACAAAACAACCATAAGTTGATATTTTTGGTCCTCGAGTATTTCAGCAAAACTACTGCAGTAAGAA
- relative integration efficiency (log2) [1]: -0.21 ± 0.42
- relative integration efficiency (log2) [2]: 0.0794 ± 0.11

Variant: AATGTTGTTGATGCAACCATAAAGTGATATTTAATAATTATTTATAATCAGCAACTTAACCACAAAACAACCATATATTGATATCTCACAAAACAACCATAAGTTGATATTTTGTGTAATCGAGTATTTCAGCAAAACTACTGCAGTAAGAA
- relative integration efficiency (log2) [1]: -0.295 ± 0.33
- relative integration efficiency (log2) [2]: -0.309 ± 0.015

Variant: AATGTTGTTGATGCAACCATAAAGTGATATTTAATAATTATTTATAATCAGCAACTTAACCACAAAACAACCATATATTGATATCTCACAAAACAACCATAAGTTGATATTTTTGTGAACCGAGTATTTCAGCAAAACTACTGCAGTAAGAA
- relative integration efficiency (log2) [1]: -0.00648 ± 0.1
- relative integration efficiency (log2) [2]: -0.131 ± 0.053

Variant: AATGTTGTTGATGCAACCATAAAGTGATATTTAATAATTATTTATAATCAGCAACTTAACCACAAAACAACCATATATTGATATCTCACAAAACAACCATAAGTTGATATTTTTGTGAAACGAGTATTTCAGCAAAACTACTGCAGTAAGAA
- relative integration efficiency (log2) [1]: 0.11 ± 0.41
- relative integration efficiency (log2) [2]: -0.141 ± 0.026

Variant: AATGTTGTTGATGCAACCATAAAGTGATATTTAATAATTATTTATAATCAGCAACTTAACCACAAAACAACCATATATTGATATCTCACAAAACAACCATAAGTTGATATTTTGTGTCCGATCTGATTTCAGCAAAACTACTGCAGTAAGAA
- relative integration efficiency (log2) [1]: 0.318 ± 0.049
- relative integration efficiency (log2) [2]: 0.295 ± 0.074

Variant: AATGTTGTTGATGCAACCATAAAGTGATATTTAATAATTATTTATAATCAGCAACTTAACCACAAAACAACCATATATTGATATCTCACAAAACAACCATAAGTTGATATTTTTGGTCCGATCTGATTTCAGCAAAACTACTGCAGTAAGAA
- relative integration efficiency (log2) [1]: -0.144 ± 0.39
- relative integration efficiency (log2) [2]: -0.0959 ± 0.032

Variant: AATGTTGTTGATGCAACCATAAAGTGATATTTAATAATTATTTATAATCAGCAACTTAACCACAAAACAACCATATATTGATATCTCACAAAACAACCATAAGTTGATATTTTTGACAATCGAGTATTTCAGCAAAACTACTGCAGTAAGAA
- relative integration efficiency (log2) [1]: 0.431 ± 0.71
- relative integration efficiency (log2) [2]: 0.161 ± 0.0064

Variant: AATGTTGTTGATGCAACCATAAAGTGATATTTAATAATTATTTATAATCAGCAACTTAACCACAAAACAACCATATATTGATATCTCACAAAACAACCATAAGTTGATATTTTTGGTAATCGAGTATTTCAGCAAAACTACTGCAGTAAGAA
- relative integration efficiency (log2) [1]: -0.146 ± 0.0071
- relative integration efficiency (log2) [2]: -0.273 ± 0.045
